Laboratory results published in patent US4609626A, “Method for producing S-adenosyl-L-homocysteine hydrolase” (Nippon Zeon Co., Ltd., priority 1983, dated 1986).

T1: S-adenosyl-L-homocysteine hydrolase (SAHase) from Alcaligenes faecalis (IFO 12669) (Alcaligenes faecalis, UniProt A0A2U2BLR9)
T1 sequence (A0A2U2BLR9 1-465): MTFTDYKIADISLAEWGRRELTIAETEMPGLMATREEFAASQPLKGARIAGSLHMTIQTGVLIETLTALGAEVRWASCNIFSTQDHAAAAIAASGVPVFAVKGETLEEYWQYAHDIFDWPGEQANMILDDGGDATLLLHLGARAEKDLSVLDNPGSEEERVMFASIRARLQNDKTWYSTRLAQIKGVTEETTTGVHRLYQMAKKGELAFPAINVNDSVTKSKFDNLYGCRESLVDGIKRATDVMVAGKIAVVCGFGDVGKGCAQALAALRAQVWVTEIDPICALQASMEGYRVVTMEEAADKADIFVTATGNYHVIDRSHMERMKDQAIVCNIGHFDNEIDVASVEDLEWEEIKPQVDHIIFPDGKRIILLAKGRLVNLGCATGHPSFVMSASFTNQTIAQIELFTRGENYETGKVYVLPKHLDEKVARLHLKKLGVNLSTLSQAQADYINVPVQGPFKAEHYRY

B1: S-adenosyl-L-homocysteine hydrolase (SAHase) from Alcaligenes faecalis (IFO 12669) (Alcaligenes faecalis) (protein)
chain: MTFTDYKIADISLAEWGRRELTIAETEMPGLMATREEFAASQPLKGARIAGSLHMTIQTGVLIETLTALGAEVRWASCNIFSTQDHAAAAIAASGVPVFAVKGETLEEYWQYAHDIFDWPGEQANMILDDGGDATLLLHLGARAEKDLSVLDNPGSEEERVMFASIRARLQNDKTWYSTRLAQIKGVTEETTTGVHRLYQMAKKGELAFPAINVNDSVTKSKFDNLYGCRESLVDGIKRATDVMVAGKIAVVCGFGDVGKGCAQALAALRAQVWVTEIDPICALQASMEGYRVVTMEEAADKADIFVTATGNYHVIDRSHMERMKDQAIVCNIGHFDNEIDVASVEDLEWEEIKPQVDHIIFPDGKRIILLAKGRLVNLGCATGHPSFVMSASFTNQTIAQIELFTRGENYETGKVYVLPKHLDEKVARLHLKKLGVNLSTLSQAQADYINVPVQGPFKAEHYRY

How the values were obtained:
[1] = molecular target: T1, S-adenosyl-L-homocysteine hydrolase (SAHase) from Alcaligenes faecalis (IFO 12669); details: read-out: Km for SAH; purified crystalline SAHase of Example 1
Procedure: (§1) Then, the reaction is stopped by adding 0.1 ml of 30% perchloric acid. Then, 0.9 ml of 0.5M phosphate buffer (pH 7.0) was added to the reaction mixture. The resulting precipitate is removed by centrifugal separation. The supernatant obtained is analyzed by high-performance liquid chromatography (Model 638-30 made by Hitachi Limited; column Cosmocil 5C18 ; eluent 0.2M KH2 PO4 /methanol=90/10 (V/v); detector UV 260 nm) to determine the amount of SAH produced. The SAH synthesizing enzyme activity is expressed in units. One unit is defined as the amount of the enzyme which is required to form 1 micromole of SAH per minute.
(§2) SAH is reacted with SAHase, and the resulting AdR is converted to inosine in the presence of an excess of adenosine deaminase. The speed of the decrease of the absorbance at 265 nm at this time is measured. Specifically, 475 microliters of 10 mM phosphate buffer, 10 microliters of 2.5 mM SAH, 5 microliters of adenosine deaminase (Type III produced by Sigma Company) and 10 microliters of an enzyme solution are reacted at 25° C., and the speed of the decrease of the absorbance at 265 nm at this time is measured to determine the amount of SAH hydrolyzed. The SAH hydrolysis enzyme activity is expressed in units. One unit is defined as the amount of the enzyme which is required to hydrolyze 1 micromole of SAH per minute.

[2] = substrate: N[C@@H](CCS)C(=O)O; assay: purified protein, by the assay type; details: other: purified crystalline SAHase of Example 1
[3] = substrate: Nc1ncnc2c1ncn2[C@@H]1O[C@H](CO)[C@@H](O)[C@H]1O; assay: purified protein, by the assay type; details: other: purified crystalline SAHase of Example 1
Procedure: as §1, §2

Molecule | Km [1] [µM] | Km [2] [µM] | Km [3] [µM]
Nc1ncnc2c1ncn2[C@@H]1O[C@H](CSCC[C@H](N)C(=O)O)[C@@H](O)[C@H]1O [SAH, S-adenosyl-L-homocysteine] | 10 |  | 
B1 |  | 930 | 37
